Experiment: soluble fraction after stress (log2 fold change); higher = more stays soluble; pooled small domains, quantitative proteomics
Conditions: stress: 75 degC
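Also: 20 min heating vs room temperature control held 20 min.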

Sequence	soluble fraction (log2)
HMGTAVKAPMPGTILKVNVTAGQSVKAGDIMFILEAMKMENEIVAPSDGTVSQVVAAKGSSVATDDVLAYL	-0.586
HMGTDGLKDIVLEILKEHPNQLAELIDGKQKVLGFLVGQVMKKTNGAANPKEVNEIIQGEIKK	0.179
HMGTELSYSEFLNKVEAGEVTNVTIRGPEITFQTGNSSYTTYAPDDPKLIEHLTAKGVAIKAGP	0.608
HMGTGELLVHVIGAVHSPGVVRLPTGARVVDAIDAAGGAREDAQTEQLNLARLVDDGEQVRVPVVGESVD	0.081
HMGTGIKQVNVVSVIGQDEETAKTTLTNLGLKVNVTYATSTSDNGKVTKQSIDAGKTVDEGTSVTITVNKV	≥ 1.04
HMGTHSAEQVRAAIRAIVAAEDAANPLSDARITELLAMRGIAAARRTVMKYREQLGIPSSAKRRR	-1.94
HMGTHVVQEGEYLDLIIEKTIPGSPIRKDLLRKAFVKLNPSAFGGRGNPNYIFARKKLKVPSVEDLKAVIF	0.127
HMGTIEEYSKYLINQYFDSLKKPMDAMTTSEKIEIVKSLDKKGIFNLKGSVGELAKRFNTSEKTIYRYLSS	-0.202
HMGTKRWELPRRVQQMATQHGKSISTAAAEELVSRSGENTRMLDNDLVKLAQMVEAPQIELADVERWIVR	0.207
HMGTLPSLAPSGEKTVRLPNLAGWSLRETMEILQKGGLQLLPIGSGISFKQSPPPGTTLNEGDAVTVWF	0.00884
HMGTNTTGWIKIADDWKYIDSNGEYTVNDWRQSADGGWYYLGYNGNMLKNQTTPDGYYVDAEGLWDGMSPA	-0.54
HMGTPEQVVVSSVLKETNEIVLKWPADGFMAKYKMDNLNLNFEPVHGQGVMGYFIGSRLIKLELV	-1.43
HMGTPSAEELAFSAQKGNAVMRIMEIREKYIENGGQISDEERNEIERLIAIYYPKASIFDYLPMMG	-0.367
HMGTSFEDIDRAVKSVRKPETDEAEKLHAGKTFKDIAETELFQKLTESFAGISDRVNEVIDLYTARAAE	0.188
HMGTSSAEIAAELRAQIFAGELRPGEMLPSAREITGTWNVAIATASRVHALLRSEGLATPVPGVGTVVAT	0.223
HMGTTAWISTKTANGSVNIRTGPGTGYGVIGWALNGDKLEVLSRGTSWHYVKLVKNGKIGYVSASYVSFTQ	-3.41
HMGTTKGVVDVTVPNGRASQHVKLVVIDDDGGRVVYDGTNAPGDRIVKSVSGSGNVRVQIYLNNALVQEQS	-0.491
HMGTTMLEVPNFVGEVFKEIDPEKYPNLRLVDSDYTYSNEYEAGKVISQDPVARTQVAEGSTVKLVIS	0.319
HMGTVISVDKARSIALAKVPGASANDIRIHLDRDDGRQIYEGEIYYNRMEYEFEIDASTGTIIEWSAEHW	-2.33
HMGTVQSVDRALLLLSEIGREPGGLVDLSTRVRLATSTTGRILATLEHAGAVVRGDDGIYHIGPLVHGMVS	-2.04
HMGTYSKQDLLQLIGRYPDGIGKREINLAFSKGTKIRNLLNIELNELLNERLITLSQGGLYIKP	-1.92
HMGVAFAPVEKIKHTKTGNELYAVKLAGRVEAEVFGQLRQKAKEYDGYYSKFSRAFLFSTPEDAEAFRAE	-0.294
HMGVDIAEHDGQPAVSIRKGAAESVAQWVKDQGGTFPQEVEMTVQNVARAGGTPLVVARGRDVLGVIYLKD	-0.0119
HMGVDKLTPREREVLALMAQGASNREIEGKLVLTAGAVSKHVANVFMKLGFSPEDENRRVKAVLAWLRTK	-2.86
HMGVGIEALAVEVDRIRQVLTGGGALSDIQLFSQLKALGEVKTALSSMTDPRARELEKRVAQLLEASLRT	-0.708
HMGVKHKHKGAGELLAALRTMFPNSSVSTLRKMLTQGRVVLNGEVVHRAKHELTDGDTIEVLERQRAER	0.0384

Sequence	soluble fraction (log2)
HMGVKIELNENEQAIFAAMQKQVEAVLPDLRAQFADMSNKAWDNSVKTLTKNNLLKVSKEAEILFIRL	-0.939
HMGVKTDKYYYQMATETRVNKHYGLSNQYIATLISEYPRSPLIPNASILSKKNNADLALIDQSINQR	-0.515
HMGVLSPRQSQILALVAQGLGNREIAERLHIAPTTARDHVQAIMRRLNVNSRAAAAVMGVKLGLI	-1.92
HMGVNEGVNKLFKTIQETPGKRMPYYALATDVPEKTIERWLKQLREEGKIEFKGSAKTGGYFVIDK	-0.000624
HMGVRDIRIFERNNSFFVNAEIRGEAQLSVPITRTDYQLFKENKIDALSLVEKYYAEELNASNEMK	0.234
HMGVSLNELAYRRFKQALVTLSYKPGEYLNTAQVMNDLDMGRTPINQAIHRLANEGLLQVIPRKGVMVS	-2.24
HMGVTDLFAVLGFPRSPWLDAEELKQRHHALMADEASANSSPTILNEARRTLQNPALRIRHFLALEFPDH	-0.425
HMGVYDLIYLGYGINVEKEELVDQNISIIRRYANIFDPNGDIKGSTNPTYASNTAVLFNEAKFIIDGYD	-3.7
HMGWQPDPLTTRERLVAELATQASNAQIAEQLHLSVRTVEGHLAHVYTKLGITTRRELPAALAGAR	-1.55
HMGWTTPAGIAVGMDKSVLQDAYGKEDDTFQDKGILYYQYFVHPSRMSGLSFGIKNDKIVSITAYMD	-2.02
HMGYDDLEPFDANGRLRWSDQELVLAFGRHRGATLRTLELNDPSYLRWLLSGNGPLEQQDIQRLEQILES	-1.55
HMGYDLLFQQALGFHEQGRLNEAENIYRQILETAPNNPDILNLLGLIAQQKGLHAQAVDYFYQAIRL	-1.89
HMGYDVAEVKFRLIKLLRDSKIGISGVEISERLGINRVTMTKYLNIFSAEGVIGEKNIGNVNLWFVYEGIE	-1.62
HMGYQLSLEAQSQLKALGLTSEYITRILDEADNRQPIPGTSRTVYSLNGYQVEFSHSDQQVIRIARG	-1.14
HMGYSDEIGEFIKKLRTENHLTQKEFADKYGVTYQAVSKWENGKNLPDMSLIKQMSEDFNIGIDELLDGEK	-0.00865
HMGYTLDVAHGVTEDMNFSEAFATAREEVGPGGIFYWHGKPYGTYYENEWNAMDEEDKAEYWDAVGRTTA	0.0888
HMHANSDVEQLMQMGIQRLNFQRYSDALLIFNQIIENFPDYAEAWNKRATLHYLLGNLDKSIADIEQTLE	-2.45
HMHAPIAELKKVFKEEFADQEVTVRQLAGSVLLSGNVKTAELRENLESVAKQFFPRVINNLKLI	-0.444
HMHDAKAEIIRLSALLTEYQRSYYIDGHSQVSDLEYDRLFDRLVALETSHPELREADSPTQRV	-0.917
HMHDAKTQLQEEAARRGLPAPVYTRIGQEGPDHAPRFRVRADVGPHQAEAVAGSLKLAQAEAARAILRQMP	0.132
HMHDITPAVAETFKQLRAERGLSLSQAAQLTGVSKAMLGQIERGQSSPTVSTLWKIATGFNVAFSVFL	-2.56
HMHDLGEQIIEKLRASGGISTLTDKSDPDAIYRQFKVSKKKYKQALGTLYKSRRITLAPNQIKLA	-0.293
HMHDPLATLTPREHEVMSLMAEGRTNAAIAQALVIGTGAVEKNVTSIFQKLGLDDSGTDHRRVLAVLAWLQ	-2.13
HMHDRRSGKVKWYSDRKGYGFIDLDGGEVFIHRSALIAFGALRLQAEDIITITVRETDRGLVVDQLFGIER	-1.66
HMHEAILNQIRNEELMLYIGELSDAQQDVILLKYFHQMTFKEIAESFSIPISTVKTRHTAALKKLSTLWK	-0.36
HMHESLAEVAARKLRALIVTGELAPGERVTEAGLTDLLEISRTPAREAIRILSSEGLLVVFPNRGAEVV	-0.94

Sequence	soluble fraction (log2)
HMHEYSDIEHRILDAAREVFIRKGYDSATMGDIALLAGMSRTSVNYYFRNKERLFEAIFEEII	-1.91
HMHFDQILAHAMDERGMNAVQLASLTGLSSGAISRYLAGDRQPTVYSIQQIAKALGVSADYLVG	-1.19
HMHGEAEFLDATAVVMEKLNPGGLVKIKGEIWQAVSKDGHTIQEGEKVRVFERQGITLLVGHF	-0.876
HMHGTIHSAAYGGDIEAVKKFLAAGADVNANGGGRTPLDLAIQVKNTEIADLLRKHGGKTGDELKA	0.547
HMHGYLSDPAARLIRARRKTLSIRITQEGNLEIRAPLGMPKGEIEAFLKEKAQWIETHRAKVLAEYA	-2.84
HMHHDQQQITAELARIARNGLPGLTADNAIISRLDALNLLINIHDDRGADATPLRGLLPAIADELLRLT	0.056
HMHHIDTAWFRGKMREHRLTQEAVGQAIGLERSMVSKIIKGTVSFNARKASAWAQLLRVSESEILERVGI	-2.58
HMHHIDYKQLRRINPVAARRAVLDYLESTGGNITKTAQVFSINRSVVYDILKKQASGDLSDRLRIP	-2.04
HMHIDQVIRERRLALGLTQEELANKIGVSAPAVSKWEKRVSYPDITLLPALARILGTDVNTLLTFS	-1.08
HMHIVQEGDSLYGIARQYRITVEELRSLNALETADVIVPYQKLYV	-0.851
HMHKPLRILVYEELRMLIMTGQIKPGTRMMEIDLAESMGVSRTPVREAIRQLEKDNLVTIEPRRGAYVSD	-2.71
HMHKYQVGETVYYTSPTFGRAAATGSYIVVKLLPSEGDDYQYRIKSSGEAFERVAKESQLDR	-0.57
HMHLIPRESTYEIDGRRFVVDSVNLDFGKVSLQDITFRNATGFPIFRSESIEFMRRLVEISEAQRIAEL	-0.0447
HMHLPDNAVSIISELKMTPEEVLELIGKLPHDFLFLPYSQRKKIIVDLIPNKDYKLLMSLIKKFML	-1.62
HMHLTRYQYKVETEQEAVGLKELSSVHDLQIKENEATFQADSDAIDEILKTLLLYGVKKLEATPPTLED	-0.211
HMHMSLTEKYKELTDLAVSAGVQNLNVREQDGVLYVDGDASGAVKQQLWDTYGKLDPDYTSGDLVLNI	0.279
HMHNSPSPVATTILRFLQPVRAFVGDTEDMRTFGPFLREDVAMVPASQAKNLIRSGHAVEINP	-0.0107
HMHNSQTIIDNIKRIANEQNISLSKLAVISGLGKNTITSMTAKTNIKIETLTAIAKSLNVSIHDLTGE	-2.64
HMHPDHRTATVPDAAAGRRFDAVLAELFPQFSRSKLTTWIKSGEVLLNGEVPRPRDAVVGGETVSLNVVL	-0.554
HMHPMVEAYLADLDRALSGSDPREHAETMSAVREHLADAIAPDATAEQVRHALDELGPVEAIAAG	0.0321
HMHPQISVEGVLPLKEAVEFVEREIISHAYSRYRATREVARHLGIDPSTVLRKAAKYGITVEPGKN	-1.07
HMHPRDREENKYLLLRGERIYEESIGEKRLYVEAALHKYEKALSSYDTGLIDEAKEEFKKFLEEIEEA	-0.271
HMHPVEPDDPDQHILFQHLRGQDQVHIDALIRLSGWTADKVSSTLLFMELQGLVKQLPGMYYALE	-0.806
HMHQAADFAGFITFNKDGVEQFSFGKYKNQTVVSVLEKDPGYYSWIQNADFPLYTKKILTAIRLAM	-1.06

Reference: the domain aggregation screens of Martell et al. (2025)
